Test results: publication PMC3241645 (Nucleic Acids Research, 2011)

Experiments:
[1] = target: Helicobacter pylori GluRS2 (non-canonical glutamyl-tRNA synthetase 2) (Helicobacter pylori) (UniProt O25360); assay: nanopore optical interferometry
[2] = target: Helicobacter pylori GluRS2 (non-canonical glutamyl-tRNA synthetase 2) (Helicobacter pylori) (UniProt O25360); assay: dynamic light scattering
[3] = target: the molecule itself; assay: nanopore optical interferometry

| Molecule | average optical path difference at plateau, 0.5 µM GatCAB [1] [nm] | average optical path difference at plateau, 2 µM GatCAB [1] [nm] | average optical path difference at plateau, 5 µM GatCAB [1] [nm] | average optical path difference at plateau, 10 µM GatCAB [1] [nm] | average optical path difference at plateau, 19 µM GatCAB [1] [nm] | stoichiometry N [2] | binding result [3] |
| --- | --- | --- | --- | --- | --- | --- | --- |
| Helicobacter pylori GatCAB (tRNA-dependent amidotransferase) (complex) | 0.6 | 2.2 | 5.4 | 10.4 | 16.2 | 1 | – |
| Helicobacter pylori GluRS2 (non-canonical glutamyl-tRNA synthetase 2) (enzyme, UniProt O25360 1-439, looked up) MLRFAPSPTGDMHIGNLRAAIFNYIVAKQQYKPFLIRIEDTDKERNIEGKDQEILEILKLMGISWDKLVYQSHNIDYHREMAEKLLKENKAFYCYASAEFLEREKEKAKNEKRPFRYSDEWATLEKDKHHAPVVRLKAPNHAVSFNDAIKKEVKFEPDELDSFVLLRQDKSPTYNFACACDDLLYKISLIIRGEDHVSNTPKQILIQQALGSNDPIVYAHLPIILDEVSGKKMSKRDEASSVKWLLNQGFLPVAIANYLITIGNKVPKEVFSLDEAIEWFSLENLSSSPAHFNLKYLKHLNHEHLKLLDDDKLLELTSIKDKNLLGLLRLFIEECGTLLELREKISLFLEPKDIVKTYENEDFKERCLALFNALTSMDFQAYKDFESFKKEAMRLSQLKGKDFFKPLRILLTGNSHGVELPLIFPYIQSHHQEVLRLKA | – | – | – | – | – | – | binds |
